In the assay the target is K. lactis 80S ribosome (40S and 60S subunits) (K. lactis). The experiment in a line: co-sedimentation; 30 pmol eIF5B, 15 pmol K. lactis 80S ribosomes, 0.1 mM GDPNP in 30 uL of 20 mM Hepes pH 7.4, 50 mM KCl, 2 mM DTT, 2.5 mM Mg-acetate, 30 C for 5 min; pelleted through a 1 M sucrose cushion (80,000 rpm, 3 h, 4 C); pellets on SDS/PAGE, Coomassie, bands quantified and normalised to WT.

In the case of “eIF5B-DIII-h12-Loop mutant (K. lactis eIF5B 361-967, residues 835-839 in S. cerevisiae numbering / 800-804 in K. lactis substituted to alanine) (domain or fragment)”, the fold reduction in ribosomal binding against WT was 2 fold.
To “eIF5B-YxA mutant (K. lactis eIF5B 361-967, Tyr837 in S. cerevisiae numbering / Tyr802 in K. lactis substituted to alanine) (domain or fragment)” belongs 2 fold.

(Values after PMC6983393.)
